The results in this text go back to US20180230214A1.

In this assay the target is biotinylated soluble human CD56 (human) (UniProt P13591). Description: flow cytometry of 56-28z-LNGFR transduced T cells stained with biotinylated soluble human CD56 (y axis 'sCD56 binding') against LNGFR (x axis). The other quadrants of this panel read 0.56 (upper left), 41.8 (lower left) and 33.1 (lower right). The sCD56 signal rises with LNGFR to about 10^3. The untransduced T cell control panel reads 0.57 (upper left), 0.27 (upper right), 97.6 (lower left) and 1.61 (lower right). (Flow cytometry measures light scatter and fluorescence of single cells or particles in a stream.)

With “56-28z CAR (scFv of murine anti-human CD56 antibody N901 fused to CD28/CD3z domains)”, the quadrant number, cells positive for sCD56 binding and for LNGFR (upper right quadrant) came to 24.5%.
